This note sets out measurements from patent US20160083481A1 (INSERM INSTITUT NATIONAL DE LA SANT ET DE LA RECHERCHE M …, published 2016).

In experiment [1] the target is T1, Purified glycophorin A (human, from red cell membranes) (human, UniProt P02724 20-150).
T1 construct: mature; also called GPA; Human Glycophorin A
T1 sequence (looked up): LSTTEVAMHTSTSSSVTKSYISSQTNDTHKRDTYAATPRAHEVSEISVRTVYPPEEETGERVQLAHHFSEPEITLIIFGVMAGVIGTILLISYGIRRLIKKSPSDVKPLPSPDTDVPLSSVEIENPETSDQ
Kind of experiment: SPR, Biacore X100, purified GPA amine-coupled on a CM5 chip (400 RU), IH4 as analyte, 1:1 Langmuir fit. (Surface plasmon resonance follows binding to a sensor surface in real time, without labels.)
Method: SPR recordings obtained in a Biacore X100 apparatus.
SPR analysis of VHH interactions used a Biacore X100 apparatus (GE Healthcare). Purified GPA was immobilized on a CM5 chip in the Fc2 channel to a level of 400 Resonance units using amine coupling chemistry as recommended by the manufacturer. Reference channel Fc1 was simply activated and deactivated through ethanolamine. 6 different concentrations of analyte were injected onto the chip for 180 seconds, and dissociation let to proceed for 600 seconds. Data were analyzed using BIA Evaluation software associated to the apparatus.
Data can be easily fitted using 1:1 Langmuir fit.

Experiment [2] addresses T2, Glycophorin B in the crude glycophorins mixture (human, UniProt P06028 20-91).
T2 construct: mature; also called GPB
Kind of experiment: western blot of the crude glycophorins mixture, PVDF, with and without NaOH beta-elimination. (A western blot detects proteins with antibodies after separation by electrophoresis.)

One may read the Kd as the equilibrium constant for the complex coming apart. The low end stands for tighter binding, the high end for weaker binding. For orientation: koff means a measure of how fast the partners let go of each other. Read a high koff as a short-lived complex. The kon is a measure of how fast the partners come together. A high value points to faster complex formation.

B1: IH4 (VHH)
VHH: QVQLQESGGGSVQAGGSLRLSCVASGYTDSTYCVGWFRQAPGKEREGVARINTISGRPWYADSVKGRFTISQDNSKNTVFLQMNSLKPEDTAIYYCTLTTANSRGFCSGGYNYKGQGQVTVS
notes: also called VHH IH4; autonomous IH4; not shown: A polyhistidine tail is also present: C-terminal after the HA tag (pHEN6cPm)
In experiment [1], B1 registered a Kd of 33.7 nM, a koff of 0.019 s⁻¹ and a kon of 573000 M⁻¹ s⁻¹. Further, the binding result in experiment [2] is “no binding”.
